Measured values published in the nanobody polyreactivity screen of Harvey et al. (2022).

Test: yeast display, Sf9 membrane polyspecificity reagent, FACS + sequencing; frameworks hold sequencing errors
Method in brief: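 Synthetic nanobody libraries on Saccharomyces cerevisiae BJ5465 were galactose-induced for 36–48 hours, stained 1 hour at 4 °C with 10% biotinylated, detergent-solubilized Sf9 membrane reagent and enriched on streptavidin microbeads. FACS then separated cells into low and high (top ~1%) gates by anti-HA (expression) and streptavidin (reagent binding) fluorescence. Genes were colony-PCR amplified, MiSeq 2 × 250 sequenced and CDR-length filtered. A clone's polyreactivity label is that of its gate of origin.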

| Sequence | polyreactivity (PSR sort gate) |
| --- | --- |
| QVQLVESGGGLVQAGGSLRISCAASGRTFYGNAMGWYRQAPGKEREFFAAISASGGSTYYADSVKGRFTISRDNAKNTVYLQLNSLKPEDTSVYYCATDLGAFSVPYSPYDYWGLGTQVTVSS | low polyreactivity |
| QVQLVESGGGLVQAGGSLRISCAASGSIFDSKAMGWYRQAPGKERELVASFTSSGGSTYYADSVKGRFTISRDNAKNTVYLPRNSRKPEDTAVYYCAADSYKTIQDAYDYWGQGTQVTVSS | high polyreactivity |
| QVQLVESGGGLVQAGGSLRISCAASGSIFPEYAMGWYRQAPGKERELVAAITTSGGSTYYADSVKGRFTISRDNAKNTVYLQMNSLKPEDTAVYYCAVEYLVYLDYTYDYWGQGTQVTVSS | low polyreactivity |
| QVQLVESGGGLVQAGGSLRISCAASGSIFPRYAMGWYRQAPGKERELVAAISWRGGRTYYADSVKGRFTISRDNAKNTVYLQMNSLKPEDTAVYYCAARWRQRKSVRYGQQGYDYWGQGTQVTVSS | high polyreactivity |
| QVQLVESGGGLVQAGGSLRISCAASGSIFRPNAMGRYRQAPGKERELVAAINTSDDSTYYADSVKGRFTISRDNAKNTVYLQMNSLKQEDTAVYYCAAEYYAYPYGDYYDYWGQGTQVTVSS | low polyreactivity |
| QVQLVESGGGLVQAGGSLRISCAASGSIFTFYAMGRYRQAPGKERELVATITWLGGSTYADSVKGRFTISRDNAKNTVYLQMNSLKPEDTAVYYCAKYLGRQHEKDLGGMNYWGQGTQVTVSS | high polyreactivity |
| QVQLVESGGGLVQAGGSLRISCAASGSIFVHYAMGWYIPAPGKERELVAAITTSGGSTYYADSVKGRFTISRDNAKNTVYLQMNSLKPEDTAVYYCTARAVRYPFTGNYWGQGTQVTVSS | high polyreactivity |
| QVQLVESGGGLVQAGGSLRISCAASGSIFYRNVMGWYRQAPGKERELVAAISSSGGRTHYADSVKGRFTISRDNAKNTVYLQMNSLKPEDTAVYYCTALYAPQEYGRRFPNDYWGQGTQVTVSS | high polyreactivity |
| QVQLVESGGGLVQAGGSLRISCAASGSIFYWNTMGWYRQAPGKERELVATITRSGGSTRYADSVKGRCTISRDNAKITVYLQMNSLKPEDTAVYYCAAYRVYKRVVRGFDYWGQGTQVTVSS | low polyreactivity |
| QVQLVESGGGLVQAGGSLRISCAASGSISVYNAMGWYRQAPGKERELVAAISWSGGRTSYADSVKGRFTISRDNAKKTVYLQMNSLKPEDTEVYYCAADELTVLWDEDYWGQGTQVTVSS | low polyreactivity |
| QVQLVESGGGLVQAGGSLRISCAASGSTFAGNAMGWYRQAPGKERELVAAIDSSTGSTYYADSVKGRFTISRDNAKNTVYLQMNSLKPEDTAVYYCNKTSFLVKLDYWGQGTQVTVSS | low polyreactivity |
| QVQLVESGGGLVQAGGSLRISCAASGSTFDPYGMGWYRQAPGTERELVAAITSSGRTNYADSVKGRFTISRDNAKNTVYLQMNSLKPEDTAVYYCATRKERYFYRGYEYWGQGTQVTVSS | low polyreactivity |
| QVQLVESGGGLVQAGGSLRISCAASGSTFDVNAMGWYRQAPGKERELVAAISWNSGSTYYADSVKGRFTISRDNAKNTVYLQMNSLKPEDTAVYYCAATYGTGRRSKYGYWGQGTQVTVSS | high polyreactivity |
| QVQLVESGGGLVQAGGSLRISCAASGSTFSYYAMGWYRQAPGKERELVAAISQTGGTTYYADSVKGRFTISRDNAKNTVYLQMNSLTPEDTAVYYSNAARPGGHYWGQGTQVTVSS | low polyreactivity |
| QVQLVESGGGLVQAGGSLRISCAASGSTFYRNAMGWYRQAPGKEREFVAAISFRGGGTYADSVKGRFTISRDNAKNTVYLQMNSLKPEDTAVYYCAADHLSYRRRYEYWGQGTQVTVSS | low polyreactivity |
| QVQLVESGGGLVQAGGSLRISCAASGSTFYYYAMGWYRQAPGKEREFVAAITFRCGTTYYADSVKGRFTISRDYAKNTVYLQMNSLKREDTAVYYCDAKPPFRNYVRYDYWGQGTQVTVSS | high polyreactivity |
| QVQLVESGGGLVQAGGSLRISCAASGSTLFNYAMGWYRQAPGKERELVAAIDWGDGTTYYADSVKGRFTISRDNAKNTVYLQMNSLQPEDTAVYYCAAEEFYSPYDYWGQGTQVTVSS | high polyreactivity |
